{
  "source": "patent US12630600B2",
  "about": "(MEDIMMUNE LIMITED, priority 2022, dated 2026)",
  "key": {"human GLP-1 receptor": {"biological_target": "human GLP-1 receptor (human, UniProt P43220)", "assay": "cell-based or functional assay"}, "human glucagon receptor": {"biological_target": "human glucagon receptor (human, UniProt P47871)", "assay": "cell-based or functional assay"}},
  "note": "Starred links: 1 amine or outer side, 2 acyl side, 3 side chain; linkers in the order of their positions; H or OH if unused. Non-standard residues stand in square brackets, D forms with d. Groups on a side chain read outwards from the residue. No end group written: not given here. *: point of attachment. C20 diacid = O=C(O)CCCCCCCCCCCCCCCCCCC(=O)*; C18 diacid = O=C(O)CCCCCCCCCCCCCCCCC(=O)*; γGlu = O=C(O)[C@H](CCC(=O)[*:2])N[*:1]; αMeF = C[C@](N)(Cc1ccccc1)C(=O)O; AEEA = NCCOCCOCC(=O)O; Aib = CC(C)(N)C(=O)O",
  "data": [
    {"binder": "H[Aib]QGTFTSDYSK[αMeF]LDSRRAK([γGlu-C18 diacid])DFVQWLLE[Aib]T-OH (N-terminus assumed; SMILES CC(C)C[C@H](NC(=O)[C@H](Cc1c[nH]c2ccccc12)NC(=O)[C@H](CCC(N)=O)NC(=O)[C@@H](NC(=O)[C@H](Cc1ccccc1)NC(=O)[C@H](CC(=O)O)NC(=O)[C@H](CCCCNC(=O)CC[C@H](NC(=O)CCCCCCCCCCCCCCCCC(=O)O)C(=O)O)NC(=O)[C@H](C)NC(=O)[C@H](CCCNC(=N)N)NC(=O)[C@H](CCCNC(=N)N)NC(=O)[C@H](CO)NC(=O)[C@H](CC(=O)O)NC(=O)[C@H](CC(C)C)NC(=O)[C@](C)(Cc1ccccc1)NC(=O)[C@H](CCCCN)NC(=O)[C@H](CO)NC(=O)[C@H](Cc1ccc(O)cc1)NC(=O)[C@H](CC(=O)O)NC(=O)[C@H](CO)NC(=O)[C@@H](NC(=O)[C@H](Cc1ccccc1)NC(=O)[C@@H](NC(=O)CNC(=O)[C@H](CCC(N)=O)NC(=O)C(C)(C)NC(=O)[C@@H](N)Cc1c[nH]cn1)[C@@H](C)O)[C@@H](C)O)C(C)C)C(=O)N[C@@H](CC(C)C)C(=O)N[C@@H](CCC(=O)O)C(=O)NC(C)(C)C(=O)N[C@H](C(=O)O)[C@@H](C)O)", "note": "[Peptide 342]", "values": [
      {"measurement": "hGLP-1R EC50 (pM)", "setting": "human GLP-1 receptor", "result": 220, "unit": "pM"},
      {"measurement": "hGluc-R EC50 (pM)", "setting": "human glucagon receptor", "result": 4830, "unit": "pM"}
    ]},
    {"binder": "H[Aib]QGTFTSDYSK[αMeF]LD[αMeF]RRAK([γGlu-C18 diacid])DFVQWLL[Aib]T-OH (N-terminus assumed; SMILES CC(C)C[C@H](NC(=O)[C@H](Cc1c[nH]c2ccccc12)NC(=O)[C@H](CCC(N)=O)NC(=O)[C@@H](NC(=O)[C@H](Cc1ccccc1)NC(=O)[C@H](CC(=O)O)NC(=O)[C@H](CCCCNC(=O)CC[C@H](NC(=O)CCCCCCCCCCCCCCCCC(=O)O)C(=O)O)NC(=O)[C@H](C)NC(=O)[C@H](CCCNC(=N)N)NC(=O)[C@H](CCCNC(=N)N)NC(=O)[C@](C)(Cc1ccccc1)NC(=O)[C@H](CC(=O)O)NC(=O)[C@H](CC(C)C)NC(=O)[C@](C)(Cc1ccccc1)NC(=O)[C@H](CCCCN)NC(=O)[C@H](CO)NC(=O)[C@H](Cc1ccc(O)cc1)NC(=O)[C@H](CC(=O)O)NC(=O)[C@H](CO)NC(=O)[C@@H](NC(=O)[C@H](Cc1ccccc1)NC(=O)[C@@H](NC(=O)CNC(=O)[C@H](CCC(N)=O)NC(=O)C(C)(C)NC(=O)[C@@H](N)Cc1c[nH]cn1)[C@@H](C)O)[C@@H](C)O)C(C)C)C(=O)N[C@@H](CC(C)C)C(=O)NC(C)(C)C(=O)N[C@H](C(=O)O)[C@@H](C)O)", "note": "[Peptide 339]", "values": [
      {"measurement": "hGLP-1R EC50 (pM)", "setting": "human GLP-1 receptor", "result": 312, "unit": "pM"},
      {"measurement": "hGluc-R EC50 (pM)", "setting": "human glucagon receptor", "result": 70.3, "unit": "pM"}
    ]},
    {"binder": "H[Aib]QGTFTSDVSK[αMeF]LDSERAK([AEEA-AEEA-γGlu-C20 diacid])DFVAWLEAGG-OH (N-terminus assumed; SMILES CC(C)C[C@H](NC(=O)[C@H](Cc1c[nH]c2ccccc12)NC(=O)[C@H](C)NC(=O)[C@@H](NC(=O)[C@H](Cc1ccccc1)NC(=O)[C@H](CC(=O)O)NC(=O)[C@H](CCCCNC(=O)COCCOCCNC(=O)COCCOCCNC(=O)CC[C@H](NC(=O)CCCCCCCCCCCCCCCCCCC(=O)O)C(=O)O)NC(=O)[C@H](C)NC(=O)[C@H](CCCNC(=N)N)NC(=O)[C@H](CCC(=O)O)NC(=O)[C@H](CO)NC(=O)[C@H](CC(=O)O)NC(=O)[C@H](CC(C)C)NC(=O)[C@](C)(Cc1ccccc1)NC(=O)[C@H](CCCCN)NC(=O)[C@H](CO)NC(=O)[C@@H](NC(=O)[C@H](CC(=O)O)NC(=O)[C@H](CO)NC(=O)[C@@H](NC(=O)[C@H](Cc1ccccc1)NC(=O)[C@@H](NC(=O)CNC(=O)[C@H](CCC(N)=O)NC(=O)C(C)(C)NC(=O)[C@@H](N)Cc1c[nH]cn1)[C@@H](C)O)[C@@H](C)O)C(C)C)C(C)C)C(=O)N[C@@H](CCC(=O)O)C(=O)N[C@@H](C)C(=O)NCC(=O)NCC(=O)O)", "note": "[Peptide 523]", "values": [
      {"measurement": "hGLP-1R EC50 (pM)", "setting": "human GLP-1 receptor", "result": 615, "unit": "pM"},
      {"measurement": "hGluc-R EC50 (pM)", "setting": "human glucagon receptor", "result": "> 24700", "unit": "pM"}
    ]},
    {"binder": "H[Aib]QGTFTSDYSK[αMeF]LDSRRAK([γGlu-C18 diacid])DFVQWLL[Aib]E-OH (N-terminus assumed; SMILES CC(C)C[C@H](NC(=O)[C@H](Cc1c[nH]c2ccccc12)NC(=O)[C@H](CCC(N)=O)NC(=O)[C@@H](NC(=O)[C@H](Cc1ccccc1)NC(=O)[C@H](CC(=O)O)NC(=O)[C@H](CCCCNC(=O)CC[C@H](NC(=O)CCCCCCCCCCCCCCCCC(=O)O)C(=O)O)NC(=O)[C@H](C)NC(=O)[C@H](CCCNC(=N)N)NC(=O)[C@H](CCCNC(=N)N)NC(=O)[C@H](CO)NC(=O)[C@H](CC(=O)O)NC(=O)[C@H](CC(C)C)NC(=O)[C@](C)(Cc1ccccc1)NC(=O)[C@H](CCCCN)NC(=O)[C@H](CO)NC(=O)[C@H](Cc1ccc(O)cc1)NC(=O)[C@H](CC(=O)O)NC(=O)[C@H](CO)NC(=O)[C@@H](NC(=O)[C@H](Cc1ccccc1)NC(=O)[C@@H](NC(=O)CNC(=O)[C@H](CCC(N)=O)NC(=O)C(C)(C)NC(=O)[C@@H](N)Cc1c[nH]cn1)[C@@H](C)O)[C@@H](C)O)C(C)C)C(=O)N[C@@H](CC(C)C)C(=O)NC(C)(C)C(=O)N[C@@H](CCC(=O)O)C(=O)O)", "note": "[Peptide 340]", "values": [
      {"measurement": "hGLP-1R EC50 (pM)", "setting": "human GLP-1 receptor", "result": 312, "unit": "pM"},
      {"measurement": "hGluc-R EC50 (pM)", "setting": "human glucagon receptor", "result": 94.7, "unit": "pM"}
    ]},
    {"binder": "H[Aib]QGTFTSDVSK[αMeF]LDSERAK([AEEA-AEEA-γGlu-C18 diacid])DFVAWLEAGG-OH (N-terminus assumed; SMILES CC(C)C[C@H](NC(=O)[C@H](Cc1c[nH]c2ccccc12)NC(=O)[C@H](C)NC(=O)[C@@H](NC(=O)[C@H](Cc1ccccc1)NC(=O)[C@H](CC(=O)O)NC(=O)[C@H](CCCCNC(=O)COCCOCCNC(=O)COCCOCCNC(=O)CC[C@H](NC(=O)CCCCCCCCCCCCCCCCC(=O)O)C(=O)O)NC(=O)[C@H](C)NC(=O)[C@H](CCCNC(=N)N)NC(=O)[C@H](CCC(=O)O)NC(=O)[C@H](CO)NC(=O)[C@H](CC(=O)O)NC(=O)[C@H](CC(C)C)NC(=O)[C@](C)(Cc1ccccc1)NC(=O)[C@H](CCCCN)NC(=O)[C@H](CO)NC(=O)[C@@H](NC(=O)[C@H](CC(=O)O)NC(=O)[C@H](CO)NC(=O)[C@@H](NC(=O)[C@H](Cc1ccccc1)NC(=O)[C@@H](NC(=O)CNC(=O)[C@H](CCC(N)=O)NC(=O)C(C)(C)NC(=O)[C@@H](N)Cc1c[nH]cn1)[C@@H](C)O)[C@@H](C)O)C(C)C)C(C)C)C(=O)N[C@@H](CCC(=O)O)C(=O)N[C@@H](C)C(=O)NCC(=O)NCC(=O)O)", "note": "[Peptide 522]", "values": [
      {"measurement": "hGLP-1R EC50 (pM)", "setting": "human GLP-1 receptor", "result": 508, "unit": "pM"},
      {"measurement": "hGluc-R EC50 (pM)", "setting": "human glucagon receptor", "result": 6360, "unit": "pM"}
    ]}
  ]
}
